Key:
soluble EGFR ectodomain = soluble EGFR ectodomain (Homo sapiens, UniProt P00533); experiment: Yeast-displayed Gp2 binding to soluble EGFR ectodomain; conditions: 1 nM soluble EGFR ectodomain
Method: The plasmid containing the clone of interest was transformed into yeast using the Frozen EZ Transformation Kit II (Zymo Research Corp., Irvine, Calif.), plated on SD medium plates and then grown directly in SG medium at 30° C. for at least 12 hours to induce protein expression. Cells were pelleted and washed with PBSA (phosphate buffered saline with 0.1% bovine serum albumin) and resuspended in PBSA containing biotin conjugated target over a range of concentrations. […] The samples were incubated at 22° C. for an appropriate amount of time to reach 90% of the approach to equilibrium. After incubation, cells were washed and labeled with mouse anti-c-myc antibody (clone 9E10) for 10-15 minutes, washed, and labeled with fluorescein-conjugated goat anti-mouse antibody and Alexa Fluor 647-conjugated streptavidin for 10-15 minutes. Yeast were washed and Alexa Fluor 647 fluorescence was analyzed on a FACSCalibur flow cytometer (BD Biosciences, San Jose, Calif.). The relative fraction bound for cells displaying tGp2 was determined by subtracting background fluorescence of an unlabeled control and normalizing to the maximum saturated signal at high concentrations. The equilibrium dissociation constant, KD, was identified as the concentration where half-maximal binding occurred.

[1] = Circular dichroism thermal denaturation; assay type: physicochemical; conditions: ellipticity at 218 nm, 24-98 °C, PBS
Method: Purified tGp2 was lyophilized and resuspended in PBS to a concentration of 0.3-0.9 mg mL^−1. Ellipticity was measured from 260 to 200 nm on a Jasco J-815 spectrophotometer (Jasco, Inc., Easton, Md.) in a quartz cuvette with 1 mm path length. Thermal denaturation was carried out by measuring the ellipticity at 218 nm from 24° C. to 98° C. and Tm was calculated from a standard two-state unfolding curve.

EGFR = biological target: T1, EGFR (Homo sapiens, UniProt P00533); experiment: In vitro cell labeling with tGp2-EGFR-His6, flow cytometry; assay type: cell-based
T1 construct: endogenous in cells; host or cells: A431, MDA-MB-231, MCF7
Method: Cells were pelleted, washed with PBSA, and labeled with fluorescein-conjugated rabbit anti-His6 antibody for 15 minutes at 4° C. Cells were pelleted and washed, and analyzed on an Accuri C6 flow cytometer (BD Biosciences, San Jose, Calif.).
Cell lines were labeled as above with biotinylated tGp2-EGFR-His6. Except, Alexa Fluor 488-conjugated streptavidin was used as the secondary label.
Additionally, ligand specificity was examined through target blocking. […] Cells were pelleted, washed, and labeled with Alexa Fluor 488-conjugated streptavidin for 15 minutes. After washing, flow cytometry was used to compare fluorescence of blocked and unblocked samples.

rabbit IgG = experiment: Equilibrium competition titration of soluble tGp2, rabbit IgG; assay type: binding; conditions: soluble protein, read-out: Affinity (KD) of soluble tGp2
Method: Soluble affinity of select tGp2 proteins was determined using equilibrium competition titration, as described previously (Lipovsek et al., J Mol Biol, 2007, 368:1024-1041). Briefly, the soluble tGp2 clone was allowed sufficient time to reach 90% equilibrium with biotin-conjugated target over a range of tGp2 concentrations. Yeast cells displaying the same tGp2 clone and yeast cells harboring no plasmid (to aid in pelleting) were added to the solution, and allowed to equilibrate for six days. Cells were washed, labeled for target binding and analyzed with flow cytometry, as above.

Row | Substance | Binding of soluble EGFR ectodomain by displaying yeast (soluble EGFR ectodomain) | Melting temperature (Tm) by circular dichroism [1] | Binding to human cancer cell lines (EGFR; 0 or 1 μM Gp2 anti-EGFR, flow cytometry) | Blocking of labeled Gp2 binding by unlabeled Gp2 (EGFR; A431 cells, 1 μM unlabeled Gp2) | Kd (EGFR; A431 cells, His tag, anti-His6-FITC, flow cytometry, read-out: Affinity for A431 cells (average of two experiments)) | Kd (rabbit IgG)
1 | GaE 2.3.3: EGFR-specific tGp2 scaffold; loop 1 SRGDSYW (SEQ ID NO:2), loop 2 PMYHIYY (SEQ ID NO:3), frame mutation W45R (KFWATVSRGDSYWFEVPVYAETLDEALELAERQYPMYHIYYVTRVRP) | effectively bind | 81 °C | binds to human cancer cell lines in an EGFR-dependent manner | blocks binding of labeled Gp2 to A431 cells | 50 nM | –
2 | GaR 3.2.3: Rabbit IgG-binding tGp2 clone; loop 1 HSVHGY (SEQ ID NO:44), loop 2 GNALGY (SEQ ID NO:45), E44F, W45G (KFWATVHSVHGYFEVPVYAETLDEALELAFGQYGNALGYVTRVRP) | – | 80 °C | – | – | – | 1 nM
3 | tGp2 wild type: Truncated gene protein 2 of T7 phage, 5.2 kDa, 45 amino acids, SEQ ID NO:1 (KFWATVESSEHSFEVPVYAETLDEALELAEWQYYPAGFEVTRVRP; Enterobacteria phage T7) | – | 67 °C | – | – | – | –

Source: patent US10287572B2, “Protein scaffolds and methods of use” (REGENTS OF THE UNIVERSITY OF MINNESOTA, priority 2013, dated 2019)
